Residues, ends and D or L forms follow the SMILES beside them.
Assays:
ERK2 [1] = molecular target: T1, ERK2 (Rattus norvegicus, UniProt P63086); assay: Steady-state kinetics: inhibition of Δ23N-Ets phosphorylation by ERK2; assay type: biochemical; details: Δ23N-Ets 50 µM, 1 mM MgATP, Lig-D 0–200 µM (eqn 6) or Lig-F 0–400 µM (eqn 5); fitted k0 5.5±0.1 s^−1 (Lig-D), 5.4±0.1 s^−1 (Lig-F); read-out: K50, concentration giving half the maximal change in kobs for phosphorylation of Δ23N-Ets
T1 construct: made in house
T1 sequence (P63086 whole entry): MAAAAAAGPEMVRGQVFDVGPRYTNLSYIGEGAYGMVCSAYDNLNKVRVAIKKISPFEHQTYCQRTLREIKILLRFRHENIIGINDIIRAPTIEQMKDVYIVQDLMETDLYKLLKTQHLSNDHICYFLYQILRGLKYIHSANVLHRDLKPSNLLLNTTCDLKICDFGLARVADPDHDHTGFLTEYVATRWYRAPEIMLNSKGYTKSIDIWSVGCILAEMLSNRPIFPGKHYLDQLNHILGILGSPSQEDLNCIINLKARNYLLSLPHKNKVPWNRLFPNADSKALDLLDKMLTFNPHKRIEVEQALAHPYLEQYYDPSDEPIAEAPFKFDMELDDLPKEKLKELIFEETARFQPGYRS
Procedure: zReactions were carried out at 27°C in kinase assay buffer (25 mM HEPES pH 7.4, 100 mM KCl, 2 mM DTT, 40 µg/mL BSA, and 20 mM MgCl2) containing 2 nM ERK2 and varied concentrations of substrates and inhibitors. Rates were measured under conditions where total product formation represented less than 10% of the initial substrate concentrations. The reaction was incubated for 10 min before initiation by addition of enzyme and quantified as described previously. Initial rates were determined by linear least squares fitting to plots of product against time. Reciprocal plots of 1/v against 1/s were checked for linearity, before the data were fitted to eqn. 1 using a non-linear least squares approach, assuming equal variance for velocities, using the program Kaleidagraph 3.5 (Synergy software). The intercepts [drawing 1] and slopes [drawing 2] obtained from these fits were then plotted against either the inhibitor concentration (i) (for inhibition experiments) or the reciprocal of the non-varied substrate concentration (1/s) (for initial velocity experiments). These plots were used to determine the appearance of the overall kinetic equation. Values for kinetic constants were then obtained using the program Scientist (Micromath) by fitting the kinetic data to the relevant over-all equation. […]

ERK2 [2] = molecular target: T1, ERK2; assay: Steady-state kinetics: inhibition of Ets phosphorylation by ERK2; assay type: biochemical; details: 1 mM MgATP
Procedure: Activated tagless ERK2 was generated essentially as described in (Kaoud, T.S. et al. manuscript in preparation). Expression and purification of Ets-1 (1-138) was followed by the method described in the previously published literature.
zReactions were carried out at 27°C in kinase assay buffer (25 mM HEPES pH 7.4, 100 mM KCl, 2 mM DTT, 40 µg/mL BSA, and 20 mM MgCl2) containing 2 nM ERK2 and varied concentrations of substrates and inhibitors. Rates were measured under conditions where total product formation represented less than 10% of the initial substrate concentrations. The reaction was incubated for 10 min before initiation by addition of enzyme and quantified as described previously. Initial rates were determined by linear least squares fitting to plots of product against time. Reciprocal plots of 1/v against 1/s were checked for linearity, before the data were fitted to eqn. 1 using a non-linear least squares approach, assuming equal variance for velocities, using the program Kaleidagraph 3.5 (Synergy software). The intercepts [drawing 1] and slopes [drawing 2] obtained from these fits were then plotted against either the inhibitor concentration (i) (for inhibition experiments) or the reciprocal of the non-varied substrate concentration (1/s) (for initial velocity experiments). These plots were used to determine the appearance of the overall kinetic equation. Values for kinetic constants were then obtained using the program Scientist (Micromath) by fitting the kinetic data to the relevant over-all equation. Data conforming to a sequential initial velocity pattern were fitted to eqn 2; data conforming to linear competitive inhibition were fitted to eqn. 3; data conforming to hyperbolic mixed inhibition were fitted to eqn. 4. Dose-response curves for data conforming to linear inhibition were fitted to eqn. 5; and for data conforming to hyperbolic inhibition to eqn. 6. [drawing 3] (1) [drawing 4] (2) [drawing 5] (3) [drawing 6] (4) [drawing 7] (5) [drawing 8] (6)

ERK2 [3] = molecular target: T1, ERK2; assay: Steady-state parameters for phosphorylation of Ets and N-terminal Ets mutants by ERK2; assay type: biochemical; details: phosphorylation by ERK2 (2 nM), 27°C
Procedure: pET-28a Ets was PCR amplified with a forward primer containing an NdeI site (encoding the initial methionine) followed by the codon encoding Phe-24 (5′-GG GAATTCCATATGTTCCCTTCCCCGGACATG-3′) and an outer reverse primer (5′-GCTAGTTATTGCTCAGCGGTGG-3′) using the following PCR conditions: 94°C for 5 min to denature the complementary strands; 30 cycles of 55°C for 30 sec to anneal the primers, extension for 1 min at 72°C, followed by a denaturation step at 94°C for 45 sec; complementary strands were extended a final 10 min at 72°C. The N-terminal mutant PCR product was digested with NdeI and HindIII and ligated into NdeI-HindIII digested pET-28a. All proteins produced from pET-28a have an N-terminal sequence of […]- prior to the initial methionine encoded by the Ets cDNA giving EtsΔ24-138 an approximate mass of 15, 391 Da whereas Ets 1-138 has a mass of 17, 681 Da (lacking the initial methionine).
pET28a-Ets was modified by overlap extension polymerase chain reaction to construct the single cysteine mutant of Ets (C99A/C106A/C112A) in an Ets S26A background as reported elsewhere. Mutations were produced by a single-step PCR reaction using the following PCR amplification reaction (50 µL) contained Phusion DNA polymerase GC buffer, 200 µM each of the four deoxynucleoside triphosphates, 2 mM MgCl2, 3% DMSO, 80 ng of template DNA (Ets-C31 pET28a vector), 0.5 µM primers forward and reverse, and 1 µL of Phusion DNA polymerase (Finnzymes, USA, Product # F-530-S). […]
zReactions were carried out at 27°C in kinase assay buffer (25 mM HEPES pH 7.4, 100 mM KCl, 2 mM DTT, 40 µg/mL BSA, and 20 mM MgCl2) containing 2 nM ERK2 and varied concentrations of substrates and inhibitors. Rates were measured under conditions where total product formation represented less than 10% of the initial substrate concentrations. The reaction was incubated for 10 min before initiation by addition of enzyme and quantified as described previously. Initial rates were determined by linear least squares fitting to plots of product against time. […]

ERK2 [4] = molecular target: T1, ERK2; details: stopped-flow; cited from earlier work
Text: Since the seminal paper by Wright the role of intrinsically disordered regions of proteins has been a topic of great interest. […] In fact, many docking sites for the DRS of a MAPK are found at the extreme termini of MAPK ligands, such as the upstream activators the MKKs, and may be disordered. For examp ...

[5] = fit of Lig-D inhibition data (Fig. 5D), eqn 4, Ets 3–59 µM
[6] = fit of Lig-F inhibition data (Fig. 5B), eqn 3, Ets 2–12 µM
[7] = 25 mM HEPES pH 7.4, 100 mM KCl, 20 mM MgCl2

Work on `CC(=O)N[C@@H](Cc1ccc(O)cc1)C(=O)N[C@@H](C)C(=O)N1CCC[C@H]1C(=O)N[C@@H](CCCNC(=N)N)C(=O)N[C@@H](C)C(=O)N1CCC[C@H]1C(=O)N[C@@H](C)C(=O)N[C@@H](CCCCN)C(=O)N[C@@H](CC(C)C)C(=O)N[C@@H](C)C(=O)N[C@@H](Cc1ccccc1)C(=O)N[C@@H](CCC(N)=O)C(=O)N[C@@H](Cc1ccccc1)C(=O)N1CCC[C@H]1C(=O)N[C@@H](CO)C(=O)N[C@@H](CCCNC(=N)N)C(N)=O` [Lig-F] (Ac-YAPRAPAKLAFQFPSR-NH2) yielded an IC50 (ERK2 [1]) of 43 ± 2 µM, an IC50 (ERK2 [2]; Ets 6.4 µM, peptide 0–400 µM, 2 nM ERK2, 27°C, HEPES pH 7.4, fit eqn 6 (Lig-D, partial) or eqn 5 (Lig-F, full), fitted k0 8.0±0.2 s^−1 (Lig-D), 10.3±0.2 s^−1 (Lig-F), read-out: K50, concentration giving half the maximal change in kobs for phosphorylation of Ets) of 33.5 ± 1.9 µM and a Ki (ERK2 [2]; Lig-F 0–200 µM, Ets 2–12 µM, fit eqn 3, read-out: apparent competitive inhibition constant (Ki), full linear competitive inhibition vs Ets) of 22 ± 1.9 µM.

B1: Ets: His-tagged murine Ets-1 residues 1-138, ERK2 substrate; N-terminus MKAAVDLKPTLTII (protein, UniProt P27577 1-138, looked up, fragment)
chain: MKAAVDLKPTLTIIKTEKVDLELFPSPDMECADVPLLTPSSKEMMSQALKATFSGFTKEQQRLGIPKDPRQWTETHVRDWVMWAVNEFSLKGVDFQKFCMSGAALCALGKECFLELAPDFVGDILWEHLEILQKEDVK
modifications: His tag
In the case of B1, the “apparent Michaelis constant for Ets” value (ERK2 [2]; [5]) is reported as 6.3 ± 1.7 µM, the “apparent catalytic constant for Ets phosphorylation” value (ERK2 [2]; [5]) is reported as 14.1 ± 1.3 s⁻¹ and the “apparent Michaelis constant for Ets” value (ERK2 [2]; [6]) is reported as 5.6 ± 0.7 µM. The “apparent catalytic constant for Ets phosphorylation” value (ERK2 [2]; [6]) was 14.9 ± 0.8 s⁻¹, the “k cat/K m” value (ERK2 [3]; 25 mM HEPES pH 7.4) was 1e+06 M⁻¹ s⁻¹ and the K m (ERK2 [3]; [7]) was 17.0 ± 4.0 µM. It also gave a k cat (ERK2 [3]; [7]) of 18.0 ± 2.0 s⁻¹.

B2: phospho Ets: Ets phosphorylated by ERK2 (on Thr-38), product of the reaction (protein, UniProt P27577 1-138, looked up, fragment)
chain: MKAAVDLKPTLTIIKTEKVDLELFPSPDMECADVPLLTPSSKEMMSQALKATFSGFTKEQQRLGIPKDPRQWTETHVRDWVMWAVNEFSLKGVDFQKFCMSGAALCALGKECFLELAPDFVGDILWEHLEILQKEDVK
modifications: phosphorylated Thr38; His tag
notes: Ets phosphorylated by ERK2 (on Thr-38), product of the reaction
In the case of B2, the “rate constant for association k on” value (ERK2 [4]) is given as 5e+06 M⁻¹ s⁻¹ and the “rate constant for dissociation k” value (ERK2 [4]) is given as over 100 s⁻¹.
